T1: G9a and GLP (Homo sapiens, UniProt Q96KQ7+Q9H9B1)
T1 sequence (Q96KQ7 2-1210 limits assumed): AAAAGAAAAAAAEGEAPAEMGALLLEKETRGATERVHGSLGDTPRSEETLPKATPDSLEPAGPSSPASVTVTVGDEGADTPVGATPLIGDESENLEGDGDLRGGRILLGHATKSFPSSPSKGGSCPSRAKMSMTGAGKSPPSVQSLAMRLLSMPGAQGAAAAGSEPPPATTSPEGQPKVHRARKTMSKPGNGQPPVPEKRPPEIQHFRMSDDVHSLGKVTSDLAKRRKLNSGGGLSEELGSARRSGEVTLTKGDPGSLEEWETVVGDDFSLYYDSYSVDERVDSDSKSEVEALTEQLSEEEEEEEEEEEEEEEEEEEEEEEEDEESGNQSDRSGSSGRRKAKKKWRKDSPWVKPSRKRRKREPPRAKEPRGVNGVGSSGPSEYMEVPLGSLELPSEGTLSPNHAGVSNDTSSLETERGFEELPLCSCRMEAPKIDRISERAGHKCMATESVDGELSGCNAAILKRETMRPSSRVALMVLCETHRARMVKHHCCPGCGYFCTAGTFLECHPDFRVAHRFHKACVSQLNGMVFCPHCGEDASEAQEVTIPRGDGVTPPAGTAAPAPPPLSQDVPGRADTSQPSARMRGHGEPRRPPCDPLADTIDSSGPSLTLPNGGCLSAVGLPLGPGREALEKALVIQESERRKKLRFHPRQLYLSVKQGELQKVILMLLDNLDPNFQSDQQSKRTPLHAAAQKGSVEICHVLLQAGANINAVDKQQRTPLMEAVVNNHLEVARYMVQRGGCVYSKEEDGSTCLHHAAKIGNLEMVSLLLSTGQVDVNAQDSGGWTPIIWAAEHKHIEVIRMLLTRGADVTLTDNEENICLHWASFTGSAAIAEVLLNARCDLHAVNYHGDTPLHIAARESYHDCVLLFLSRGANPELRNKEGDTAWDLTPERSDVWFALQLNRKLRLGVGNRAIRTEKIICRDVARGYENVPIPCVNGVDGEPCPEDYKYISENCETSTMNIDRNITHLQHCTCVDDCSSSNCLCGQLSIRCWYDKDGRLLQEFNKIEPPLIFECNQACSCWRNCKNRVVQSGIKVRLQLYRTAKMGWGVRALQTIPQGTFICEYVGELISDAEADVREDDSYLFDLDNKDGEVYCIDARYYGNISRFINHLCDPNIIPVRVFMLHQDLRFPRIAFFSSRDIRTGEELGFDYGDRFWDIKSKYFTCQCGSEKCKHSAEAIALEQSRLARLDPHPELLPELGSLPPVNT
T1 sequence (Q9H9B1 2-1298 limits assumed): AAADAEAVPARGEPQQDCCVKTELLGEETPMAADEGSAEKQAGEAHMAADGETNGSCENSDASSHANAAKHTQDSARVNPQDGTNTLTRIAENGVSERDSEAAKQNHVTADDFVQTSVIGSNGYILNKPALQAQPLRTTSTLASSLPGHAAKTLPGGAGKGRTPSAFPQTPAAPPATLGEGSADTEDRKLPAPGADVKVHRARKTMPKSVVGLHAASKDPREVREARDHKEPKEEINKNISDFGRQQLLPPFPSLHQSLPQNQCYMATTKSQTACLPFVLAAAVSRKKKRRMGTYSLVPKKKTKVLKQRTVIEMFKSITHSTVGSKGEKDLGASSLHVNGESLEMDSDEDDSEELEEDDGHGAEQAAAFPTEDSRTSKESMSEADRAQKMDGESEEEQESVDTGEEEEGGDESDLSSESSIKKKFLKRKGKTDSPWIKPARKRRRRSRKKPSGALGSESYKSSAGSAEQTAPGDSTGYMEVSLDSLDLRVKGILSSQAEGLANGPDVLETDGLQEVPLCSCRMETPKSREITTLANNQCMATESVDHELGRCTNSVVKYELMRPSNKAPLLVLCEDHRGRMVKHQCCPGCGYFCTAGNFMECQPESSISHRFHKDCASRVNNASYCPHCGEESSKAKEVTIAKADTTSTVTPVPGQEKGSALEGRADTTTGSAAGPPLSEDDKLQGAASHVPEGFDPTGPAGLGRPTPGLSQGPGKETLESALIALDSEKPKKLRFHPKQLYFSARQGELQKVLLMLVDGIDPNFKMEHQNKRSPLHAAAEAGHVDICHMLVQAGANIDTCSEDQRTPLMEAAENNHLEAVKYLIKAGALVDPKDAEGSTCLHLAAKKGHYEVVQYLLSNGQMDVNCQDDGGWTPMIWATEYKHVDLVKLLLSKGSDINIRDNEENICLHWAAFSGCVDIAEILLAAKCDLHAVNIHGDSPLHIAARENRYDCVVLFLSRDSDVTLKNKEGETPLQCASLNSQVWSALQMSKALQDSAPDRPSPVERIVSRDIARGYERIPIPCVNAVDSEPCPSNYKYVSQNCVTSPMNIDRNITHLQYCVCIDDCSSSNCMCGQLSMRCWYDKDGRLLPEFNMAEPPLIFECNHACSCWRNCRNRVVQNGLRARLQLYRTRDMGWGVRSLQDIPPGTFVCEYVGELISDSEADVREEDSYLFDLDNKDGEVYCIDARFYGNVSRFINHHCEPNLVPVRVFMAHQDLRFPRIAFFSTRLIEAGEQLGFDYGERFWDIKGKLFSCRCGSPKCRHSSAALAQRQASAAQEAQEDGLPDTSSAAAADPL

B1: LRWD1 (protein, UniProt Q9UFC0 1-647, looked up)
Leucine-rich repeat and WD …: MGPLSARLLMQRGRPKSDRLGKIRSLDLSGLELLSEHLDPKLLCRLTQLQELDLSNNHLETLPDNLGLSHLRVLRCANNQLGDVTALCQFPKLEELSLEGNPFLTVNDNLKVSFLLPTLRKVNGKDASSTYSQVENLNRELTSRVTAHWEKFMATLGPEEEAEKAQADFVKSAVRDVRYGPESLSEFTQWRVRMISEELVAASRTQVQKANSPEKPPEAGAAHKPRARLAALKRPDDVPLSLSPSKRACASPSAQVEGSPVAGSDGSQPAVKLEPLHFLQCHSKNNSPQDLETQLWACAFEPAWEEGATSQTVATCGGEAVCVIDCQTGIVLHKYKAPGEEFFSVAWTALMVVTQAGHKKRWSVLAAAGLRGLVRLLHVRAGFCCGVIRAHKKAIATLCFSPAHETHLFTASYDKRIILWDIGVPNQDYEFQASQLLTLDTTSIPLRLCPVASCPDARLLAGCEGGCCCWDVRLDQPQKRRVCEVEFVFSEGSEASGRRVDGLAFVNEDIVASKGSGLGTICLWSWRQTWGGRGSQSTVAVVVLARLQWSSTELAYFSLSACPDKGIVLCGDEEGNVWLYDVSNILKQPPLLPAALQAPTQILKWPQPWALGQVVTKTMVNTVVANASFTYLTALTDSNIVAIWGRM
B2: SRBD1 (protein, UniProt Q8N5C6 1-995, looked up)
S1 RNA-binding …: MSSLPRRAKVQVQDVVLKDEFSSFSELSSASEEDDKEDSAWEPQKKVPRSRKQPPPKESKPKRMPRVKKNAPQISDGSEVVVVKEELNSSVAIADTALEDRKNKLDTVQTLKTAKTKQKCAAQPHTVRRTKKLKVEEETSKASNLEGESNSSETPSTSTVWGGTCKKEENDDDFTFGQSALKKIKTETYPQGQPVKFPANANSTKEEVEMNWDMVQVLSERTNIEPWVCANIIRLFNDDNTIPFIIRYRKELINNLDADSLREVQQTLEELRAVAKKVHSTIQKIKKEGKMSECLLKAMLNCKTFEELEHVSAPYKTGSKGTKAQRARQLGLEGAARALLEKPGELSLLSYIRPDVKGLSTLQDIEIGVQHILADMIAKDKDTLDFIRNLCQKRHVCIQSSLAKVSSKKVNEKDVDKFLLYQHFSCNIRNIHHHQILAINRGENLKVLTVKVNISDGVKDEFCRWCIQNRWRPRSFARPELMKILYNSLNDSFKRLIYPLLCREFRAKLTSDAEKESVMMFGRNLRQLLLTSPVPGRTLMGVDPGYKHGCKLAIISPTSQILHTDVVYLHCGQGFREAEKIKTLLLNFNCSTVVIGNGTACRETEAYFADLIMKNYFAPLDVVYCIVSEAGASIYSVSPEANKEMPGLDPNLRSAVSIARRVQDPLAELVKIEPKHIGVGMYQHDVSQTLLKATLDSVVEECVSFVGVDINICSEVLLRHIAGLNANRAKNIIEWREKNGPFINREQLKKVKGLGPKSFQQCAGFIRINQDYIRTFCSQQTETSGQIQGVAVTSSADVEVTNEKQGKKKSKTAVNVLLKPNPLDQTCIHPESYDIAMRFLSSIGGTLYEVGKPEMQQKINSFLEKEGMEKIAERLQTTVHTLQVIIDGLSQPESFDFRTDFDKPDFKRSIVCLEDLQIGTVLTGKVENATLFGIFVDIGVGKSGLIPIRNVTEAKLSKTKKRRSLGLGPGERVEVQVLNIDIPRSRITLDLIRVL
B3: PRPF19 (protein, UniProt Q9UMS4 2-504, looked up)
Pre-mRNA-processing factor 19: SLICSISNEVPEHPCVSPVSNHVYERRLIEKYIAENGTDPINNQPLSEEQLIDIKVAHPIRPKPPSATSIPAILKALQDEWDAVMLHSFTLRQQLQTTRQELSHALYQHDAACRVIARLTKEVTAAREALATLKPQAGLIVPQAVPSSQPSVVGAGEPMDLGELVGMTPEIIQKLQDKATVLTTERKKRGKTVPEELVKPEELSKYRQVASHVGLHSASIPGILALDLCPSDTNKILTGGADKNVVVFDKSSEQILATLKGHTKKVTSVVFHPSQDLVFSASPDATIRIWSVPNASCVQVVRAHESAVTGLSLHATGDYLLSSSDDQYWAFSDIQTGRVLTKVTDETSGCSLTCAQFHPDGLIFGTGTMDSQIKIWDLKERTNVANFPGHSGPITSIAFSENGYYLATAADDSSVKLWDLRKLKNFKTLQLDNNFEVKSLIFDQSGTYLALGGTDVQIYICKQWTEILHFTEHSGLTTGVAFGHHAKFIASTGMDRSLKFYSL
B4: CSDE1 (protein, UniProt O75534 1-798, looked up)
Cold shock domain-containing …: MSFDPNLLHNNGHNGYPNGTSAALRETGVIEKLLTSYGFIQCSERQARLFFHCSQYNGNLQDLKVGDDVEFEVSSDRRTGKPIAVKLVKIKQEILPEERMNGQVVCAVPHNLESKSPAAPGQSPTGSVCYERNGEVFYLTYTPEDVEGNVQLETGDKINFVIDNNKHTGAVSARNIMLLKKKQARCQGVVCAMKEAFGFIERGDVVKEIFFHYSEFKGDLETLQPGDDVEFTIKDRNGKEVATDVRLLPQGTVIFEDISIEHFEGTVTKVIPKVPSKNQNDPLPGRIKVDFVIPKELPFGDKDTKSKVTLLEGDHVRFNISTDRRDKLERATNIEVLSNTFQFTNEAREMGVIAAMRDGFGFIKCVDRDVRMFFHFSEILDGNQLHIADEVEFTVVPDMLSAQRNHAIRIKKLPKGTVSFHSHSDHRFLGTVEKEATFSNPKTTSPNKGKEKEAEDGIIAYDDCGVKLTIAFQAKDVEGSTSPQIGDKVEFSISDKQRPGQQVATCVRLLGRNSNSKRLLGYVATLKDNFGFIETANHDKEIFFHYSEFSGDVDSLELGDMVEYSLSKGKGNKVSAEKVNKTHSVNGITEEADPTIYSGKVIRPLRSVDPTQTEYQGMIEIVEEGDMKGEVYPFGIVGMANKGDCLQKGESVKFQLCVLGQNAQTMAYNITPLRRATVECVKDQFGFINYEVGDSKKLFFHVKEVQDGIELQAGDEVEFSVILNQRTGKCSACNVWRVCEGPKAVAAPRPDRLVNRLKNITLDDASAPRLMVLRQPRGPDNSMGFGAERKIRQAGVID

Test system: 3×MBT domain of L3MBTL1
Experiment: Triple SILAC pull-down, 3xMBT/3xMBTD355N ratio (cytoplasmic, nuclear and chromatin fractions of 293T cells);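 also: proteins quantified with MaxQuant, requiring at least two unique peptides and quantification in both label directions, normalized to the mean of proteins from a digested loading control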
Assay type: binding, human
Details: SILAC ratio, pull-down 3xMBT vs 3xMBTD355N; experiment with UNC0638 in heavy SILAC media

Point of comparison: B2, “3xMBT/D355N UNC Heavy” value 1.02 log base 2. Against it:
- B1 — higher, 2.59 log base 2
- B3 — higher, 2.05 log base 2
- B4 — higher, 2.33 log base 2

Same assay, conditions: SILAC ratio, pull-down 3xMBT vs 3xMBTD355N; experiment with UNC0638 in light SILAC media

Point of comparison: B1, “3xMBT/D355N UNC Light” value 2.64 log base 2. Against it:
- B2 — lower, 1.29 log base 2
- B3 — lower, 1.97 log base 2
- B4 — lower, 2.17 log base 2

Biological target: T1, G9a and GLP
Experiment: Triple SILAC pull-down after UNC0638 treatment of 293T cells, DMSO/UNC0638 ratio of protein captured by 3×MBT;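 also: mass spectrometry (Q-Exactive) SILAC quantitation, DMSO/UNC0638 ratio computed after subtracting 3×MBTD355N mutant pull-down background, only proteins with at least twofold 3×MBT over mutant signal considered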
Assay type: cell-based
Parameters: endogenous in cells; host or cells: HEK 293T
Details: SILAC ratio DMSO/UNC0638 of protein pulled down with 3xMBT; UNC0638 in heavy SILAC media

Point of comparison: B2, “Relative to UNC0638 UNC Heavy” value −0.13 log base 2. Against it:
- B1 — higher, 0.01 log base 2
- B3 — higher, 0.39 log base 2
- B4 — higher, 0.16 log base 2

Same assay, conditions: SILAC ratio DMSO/UNC0638 of protein pulled down with 3xMBT; UNC0638 in light SILAC media

Point of comparison: B4, “Relative to UNC0638 UNC Light” value 0.08 log base 2. Against it:
- B1 — higher, 0.25 log base 2
- B2 — higher, 0.37 log base 2
- B3 — lower, −0.15 log base 2

Same assay, conditions: average of UNC Light and UNC Heavy experiments

Point of comparison: B2, “Relative to UNC0638 Average” value 0.12 log base 2. Against it:
- B1 — higher, 0.13 log base 2
- B3 — the same, 0.12 log base 2
- B4 — the same, 0.12 log base 2
